Data: patent US20260210971A1 (Pfizer, published 2026)

Experiments:
[1] = target: T1, recombinant soluble human TL1A (human, UniProt O95150 71-251); experiment: plate ELISA, TL1A coated, antibody titrated; plate of TNF α
T1 construct: Homotrimer, expressed in HEK293 and purified over HitrapNTA; no tag is described; Used biotinylated in the HTRF assay and in flow cytometry; also called rsTL1A; hTL1A
T1 sequence: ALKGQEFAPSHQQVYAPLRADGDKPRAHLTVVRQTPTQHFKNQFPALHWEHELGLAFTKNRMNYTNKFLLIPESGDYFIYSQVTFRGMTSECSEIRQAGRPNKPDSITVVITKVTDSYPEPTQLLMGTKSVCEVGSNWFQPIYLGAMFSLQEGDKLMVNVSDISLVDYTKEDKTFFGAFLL
Description: (§1) The first 6 rows of each plate were coated with the test article cytokine, and the last two rows were coated with TL1A as a positive control. Rows 1 and 2 were duplicate rows where the test article cytokine was tested for binding to increasing concentrations of its corresponding anti-cytokine positive control antibody. […] The experiment for each cytokine was repeated three times.
(§2) Plates were incubated overnight at 4° C. After washing the plates three times (3×) with 300 μL PBST using a plate washer (model ELx405; BioTek), plates were blocked by incubating for 1 hour at room temperature with 300 μL of blocking buffer (PBST+0.5% BSA) in each well. […] Plates were then washed 5 times with PBST using the plate washer.

[2] = target: T1, recombinant soluble human TL1A; experiment: plate ELISA, TL1A coated, antibody titrated; plate of TNFSF10
Description: as §1, §2

[3] = target: T2, endogenous TL1A of stimulated human peripheral blood (human, UniProt O95150 72-251, limits assumed); experiment: MSD ligand-binding assay of 1D1 1.31-free soluble TL1A in plasma of human whole blood stimulated 24 h with immune complex + IL-12/IL-18
T2 construct: also called endogenous soluble TL1A
T2 sequence (looked up): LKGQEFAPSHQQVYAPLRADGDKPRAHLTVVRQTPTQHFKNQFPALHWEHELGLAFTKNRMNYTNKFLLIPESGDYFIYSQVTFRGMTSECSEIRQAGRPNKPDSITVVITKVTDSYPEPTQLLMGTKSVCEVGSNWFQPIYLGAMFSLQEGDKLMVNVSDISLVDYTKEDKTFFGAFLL
Description: After 24 hours of culture at 37° C., 100 μL of 5% bovine serum albumin in PBS were added and mixed well with the 200 μL of blood cultures to dilute plasma (dilution factor: 1.5). […] IFNγ was measured using the MSD human IFNγ kit (Catalog No. K151AEB-1) following the manufacturer's instructions. […] The following day, plates were washed three times with 150 μL per well of 0.1% Tween 20 in PBS, followed with 150 μL per well of blocking solution (5% bovine serum albumin in PBS), then the plates were incubated at room temperature for 1 hour with orbital shaking (1500 rpm). After the plates were washed as mentioned above, diluted plasma samples were added and incubated at 4° C. overnight. […] TL1A standard curves were generated using recombinant human soluble TL1A. Plates were read following the manufacturer's procedure, standard curve and plasma concentration of the cytokine were calculated with the MSD software.

[4] = target: T1, recombinant soluble human TL1A; experiment: plate ELISA, TL1A coated, antibody titrated; plate of TNFSF14
Description: as §1, §2

[5] = target: T3, endogenous TL1A of stimulated cynomolgus monkey peripheral blood (cynomolgus monkey, UniProt G7PRK8 72-251); experiment: MSD ligand-binding assay of 1D1 1.31-free sTL1A in plasma of stimulated cynomolgus blood; lower end over the monkeys; lower end of range over 6 monkeys
T3 construct: also called sTL1A (cynomolgus)
T3 sequence: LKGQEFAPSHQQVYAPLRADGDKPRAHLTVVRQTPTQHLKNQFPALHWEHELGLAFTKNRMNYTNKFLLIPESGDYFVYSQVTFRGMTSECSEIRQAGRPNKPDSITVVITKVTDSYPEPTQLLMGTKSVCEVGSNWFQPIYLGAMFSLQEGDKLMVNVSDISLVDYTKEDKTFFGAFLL
Description: Cynomolgus monkey peripheral blood treated with 1 ng/ml recombinant human IL-12 and 10 ng/ml recombinant human IL-18 was stimulated by immune complex coated plates for 24 hours at 37° C. […] Plasma was prepared from these samples and IFNγ was measured in the plasma samples by a quantitative immune-ligand binding assay using a Mesoscale (MSD) kit. […] Cynomolgus monkey peripheral blood treated with 1 ng/ml recombinant human IL-12 and 10 ng/ml recombinant human IL-18 was stimulated by immune complex coated plates for 24 hours at 37° C.
For IC and IL-12 and IL-18 stimulation, cynomolgus monkey blood was collected in sodium heparin coated tubes and used within one hour after the blood draw. Human IL-12 (1 ng/mL final concentration) and human IL-18 (10 ng/ml final concentration) were mixed in with blood prior to addition of 95 μL of the blood/IL-12/IL-18 mixture to each well of the IC coated plates.

[6] = target: T4, recombinant soluble murine TL1A (mouse, UniProt Q5UBV8 75-252); experiment: SPR, IgG captured on anti-hIgG, TL1A injected;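 note: biacore measurement on a carboxymethylated dextran chip, double-referenced against a control surface and buffer, rates fitted to a one-to-one binding model, KD from koff over kon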
T4 construct: also called murine rsTL1A; mouse TL1A
T4 chain: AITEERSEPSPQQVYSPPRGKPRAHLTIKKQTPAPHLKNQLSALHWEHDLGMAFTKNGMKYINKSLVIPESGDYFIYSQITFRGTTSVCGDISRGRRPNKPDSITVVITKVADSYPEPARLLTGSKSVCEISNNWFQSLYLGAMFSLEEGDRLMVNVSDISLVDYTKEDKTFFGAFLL
Excerpt: The antibodies were captured via directly immobilized anti-human IgG (GE Healthcare) onto a carboxymethylated dextran sensor chip surface (CM5) using a Biacore T100 or T200 instrument. Anti-human IgG was immobilized through amine coupling to densities of approximately 4,000-13,000 response units (RU). […] At the end of each cycle, the entire anti-hIgG surface was regenerated by a 30-second pulse of 3M MgCl₂ followed by two consecutive 15-second pulses of PBS-NET. […] All injections were performed at 25° C. at a collection rate of 10 Hz. All sensorgrams were double referenced by using both a control surface and buffer injections. Rate constants were determined by fitting the data to a 1:1 model in Biacore T100, T200 evaluation software v1.0, or BIAevaluation software v4.1.1 and the equation KD=Kd/kₐ.
At the highest cytokine concentrations, the dissociation phase was sometimes extended to 60 minutes to achieve at least a 5% decrease in binding signal.

[7] = target: T5, human TNFSF6 (FAS Ligand) (human, UniProt P48023 134-281, limits assumed); experiment: plate ELISA, TNFSF6 coated at 1 µg/mL, detection with anti-human IgG HRP
T5 sequence (looked up): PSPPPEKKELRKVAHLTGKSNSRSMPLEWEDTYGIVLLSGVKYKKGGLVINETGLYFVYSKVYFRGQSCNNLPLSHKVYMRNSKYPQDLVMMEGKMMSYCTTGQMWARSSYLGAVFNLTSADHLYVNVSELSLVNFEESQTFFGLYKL
Description: as §1, §2

[8] = target: T3, endogenous TL1A of stimulated …; experiment: cell-based or functional assay
[9] = target: T2, endogenous TL1A of stimulated human …; experiment: cell-based or functional assay
[10] = target: T1, recombinant soluble human TL1A; experiment: cell-based or functional assay
human TNFSF14 (LIGHT) = human TNFSF14 (LIGHT) (human, UniProt O43557 74-240, limits assumed); experiment: plate ELISA, cytokine coated
Sequence of human TNFSF14 (LIGHT) (O43557 74-240 limits assumed): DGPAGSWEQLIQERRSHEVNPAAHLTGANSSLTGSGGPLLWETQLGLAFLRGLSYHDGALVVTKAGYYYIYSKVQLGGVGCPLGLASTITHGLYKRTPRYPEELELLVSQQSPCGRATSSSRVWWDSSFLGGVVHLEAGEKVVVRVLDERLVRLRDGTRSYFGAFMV
Description: as §1, §2

human Lymphotoxin α2-β1 = target: T6, human Lymphotoxin α2-β1 (human, UniProt P01374 35-205; Q06643 49-244, limits assumed); experiment: plate ELISA, cytokine coated
T6 construct: Copies read from the name α2-β1; also called Lymβ 1
T6 sequence (looked up) 1: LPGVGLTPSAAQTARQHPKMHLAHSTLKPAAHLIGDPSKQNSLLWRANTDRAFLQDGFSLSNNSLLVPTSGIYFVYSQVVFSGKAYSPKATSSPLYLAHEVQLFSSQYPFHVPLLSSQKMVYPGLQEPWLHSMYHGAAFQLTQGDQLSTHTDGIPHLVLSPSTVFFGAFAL
T6 sequence (looked up) 2: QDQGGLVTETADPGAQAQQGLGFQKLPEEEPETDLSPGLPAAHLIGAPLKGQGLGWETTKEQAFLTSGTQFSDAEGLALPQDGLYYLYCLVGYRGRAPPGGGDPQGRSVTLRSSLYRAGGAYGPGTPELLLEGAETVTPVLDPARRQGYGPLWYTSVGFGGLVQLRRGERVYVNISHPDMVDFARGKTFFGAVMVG
Description: as §1, §2

human Lymphotoxin α1-β2 = target: T7, human Lymphotoxin α1-β2 (human, UniProt P01374 35-205; Q06643 49-244, limits assumed); experiment: plate ELISA, cytokine coated
T7 construct: Copies read from the name α1-β2; also called Lymβ 2
T7 sequence (looked up) 1: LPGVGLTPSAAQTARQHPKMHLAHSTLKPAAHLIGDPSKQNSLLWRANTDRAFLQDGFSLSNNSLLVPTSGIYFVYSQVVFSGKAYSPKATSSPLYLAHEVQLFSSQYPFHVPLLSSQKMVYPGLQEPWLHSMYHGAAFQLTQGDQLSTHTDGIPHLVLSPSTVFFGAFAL
T7 sequence (looked up) 2: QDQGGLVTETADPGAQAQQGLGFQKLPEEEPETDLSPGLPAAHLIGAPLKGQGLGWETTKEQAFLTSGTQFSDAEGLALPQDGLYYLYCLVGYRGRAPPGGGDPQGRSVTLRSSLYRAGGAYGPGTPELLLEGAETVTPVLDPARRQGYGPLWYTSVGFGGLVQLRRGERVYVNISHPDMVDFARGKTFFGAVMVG
Description: as §1, §2

human TNF-β = target: T8, human TNF-β (human, UniProt P01374 35-205); experiment: plate ELISA, cytokine coated
T8 construct: The source sentence prints 'Human TNF-from Peprotech'
T8 sequence (looked up): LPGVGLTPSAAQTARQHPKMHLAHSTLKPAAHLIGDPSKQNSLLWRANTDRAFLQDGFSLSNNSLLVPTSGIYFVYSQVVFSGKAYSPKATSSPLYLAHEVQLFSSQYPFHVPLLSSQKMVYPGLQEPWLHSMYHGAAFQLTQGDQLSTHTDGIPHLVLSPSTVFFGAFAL
Description: as §1, §2

human TNF-α = target: T9, human TNF-α (human, UniProt P01375 77-233); experiment: plate ELISA, cytokine coated
T9 construct: also called TNF alpha
T9 sequence (P01375 77-233 limits assumed): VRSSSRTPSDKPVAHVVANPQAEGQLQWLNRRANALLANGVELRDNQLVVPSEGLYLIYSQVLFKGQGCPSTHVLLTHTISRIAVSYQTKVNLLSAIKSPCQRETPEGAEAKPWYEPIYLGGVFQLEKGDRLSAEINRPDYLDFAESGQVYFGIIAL
Description: as §1, §2

human TNFSF10 (TRAIL) = human TNFSF10 (TRAIL) (human, UniProt P50591 114-281); experiment: plate ELISA, cytokine coated
Sequence of human TNFSF10 (TRAIL) (P50591 114-281 limits assumed): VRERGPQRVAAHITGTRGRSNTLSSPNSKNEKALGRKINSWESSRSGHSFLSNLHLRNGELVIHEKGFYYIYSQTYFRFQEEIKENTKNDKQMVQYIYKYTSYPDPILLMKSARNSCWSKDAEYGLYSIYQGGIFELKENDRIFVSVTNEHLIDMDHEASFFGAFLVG
Description: as §1, §2

[11] = target: T1, recombinant soluble human TL1A; experiment: plate ELISA, TL1A coated, antibody titrated; plate of TNFSF6; plate of TNFSF6
Description: as §1, §2

[12] = target: T1, recombinant soluble human TL1A; experiment: plate ELISA, TL1A coated, antibody titrated

B1: 1D1 1.31 (antibody, human IgG1, kappa, V domains shown)
VH: QVQLVQSGAEVKKPGASVKVSCKASGYDFTYYGISWVRQAPGQGLEWMGWISTYNGNTHYARMLQGRVTMTTDTSTRTAYMELRSLRSDDTAVYYCARENYYGSGAYRGGMDVWGQGTTVTVSS
VL: EIVLTQSPATLSLSPGERATLSCRASQSVSSYLAWYQQKPGQAPRLLIYDASNRATGIPARFSGSGSGTDFTLTISSLEPEDFAVYYCQQRSNWPWTFGQGTKVEIKR
notes: Full length human IgG1 with effector function-null mutations in the Fc, produced in CHO cells; Used biotinylated for staining of monocytes
EC50 [1]: 0.0082 ng/mL
EC50 [2]: 0.008 ng/mL
IC50 (read off the curve) [3]: ~0.005 nM
EC50 [4]: 0.0084 ng/mL
IC50 [5]: 0.000114 nM
Kd [6]: 1.06 nM
koff [6]: 0.00027 s⁻¹
kon [6]: 270000 M⁻¹ s⁻¹
t1/2 [6]: 42.1 min
binding result [7]: no binding (tested: 25 µg/ml)
inhibition of IFNγ secretion in stimulated cynomolgus whole blood, IC50 [8]: 0.036 nM
inhibition of IFNγ secretion in stimulated human whole blood, IC50 [9]: 0.277 nM
inhibition of NFκB activation by 150 pM TL1A in TF-1-NFκB-luciferase cells, IC50 [10]: 95 pM
inhibition of caspase activation by 87 pM TL1A in TF-1 cells, IC50 [10]: 69 pM
binding result (human TNFSF14 (LIGHT)): no binding (tested: 25 µg/mL highest antibody concentration)
binding result (human Lymphotoxin α2-β1): no binding (tested: 25 µg/mL highest antibody concentration)
binding result (human Lymphotoxin α1-β2): no binding (tested: 25 µg/mL highest antibody concentration)
binding result (human TNF-β): no binding (tested: 25 µg/mL highest antibody concentration)
binding result (human TNF-α): no binding (tested: 25 µg/mL highest antibody concentration)
binding result (human TNFSF10 (TRAIL)): no binding (tested: 25 µg/mL highest antibody concentration)
EC50 [11]: 0.0085 ng/mL
EC50 [12]: 8400 ng/mL
